Test results reported in US20250134019A1, “TRIKETONE DIOXYGENASE VARIANTS FOR HERBICIDE TOLERANCE” (Monsanto Technology LLC, priority 2022, published 2025).

Assays:
Format in all cases: in vivo
[1] = test system: transgenic soybean plants; assay: Mesotrione injury of R0 transgenic soybean plants expressing TDO homologs; details: promoter Constitutive 2, 3' UTR B; 210 g a.i./ha mesotrione at V3-V4, rated 7-14 days after treatment; mean of all tested events
Procedure: Plant expression vectors comprising the selected TDO homologs under the control of one of two constitutive promoters were transformed into soybean via an Agrobacterium tumefaciens-mediated method. Following Agrobacterium transformation, R0 transgenic soybean plants containing a single copy of the transgene were identified through molecular characterization and segregation analysis. Transgenic and wild-type (control) plants were grown in 6-inch pots filled with BM7 soilless mix in a growth chamber under the conditions of 28° C./23° C. (light/dark) and a 16 hr light/8 hr dark photoperiod. Plants were fertilized with 15-5-15 liquid fertilizer at the V3-V4 growth stage and treated with 210 g a.i./ha mesotrione (1X=105 g a.i./ha; Callisto®, Syngenta in 1% crop oil). Plants were visually rated 7-14 days after treatment on a scale of 0% to 100%, with 0%=no injury and 100%=plant death, relative to the wild-type controls. The results summarized in Table 2 represent the mean of all tested events (10-15) for each construct.

[2] = test system: transgenic soybean plants; assay: Response of R0 soybean plants transformed with Round 2 TDO variants to mesotrione; details: R0 transgenic soybean sprayed with mesotrione
Text: The next set of experiments was focused on determining if the balance between improved enzyme stability could outweigh a reduction in activity observed at optimal temperatures in soybean plants. […] To test this hypothesis, the eight variants from Round 2 biochemical analysis described in the preceding paragraph were transformed into soybean through Agrobacterium-mediated transformation, along with three controls. One of the controls (TDO_9) was a variant from the high-throughput screens that had poor activity. Two other controls were the D08 variant and the Os.TDO. R0 transgenic soybean plants were sprayed with the mesotrione herbicide to screen for herbicide tolerance. […] These included the Os.TDO control, the D08 variant and one Round 2 variant. The plants were scored for percent injury as described in the previous examples.

transgenic cotton plants = assay: Mesotrione treatment of cotton plants expressing TDO variants, crop injury; details: for Crop Injury (%), 210 g/ha (2X) Mesotrione / Crop Injury (%), 840 g/ha (8X) Mesotrione: R2 cotton sprayed at V3
Procedure: Cotton is a crop of interest that is often exposed to high temperature growing conditions and thus, selected TDO variants were tested in cotton. Three TDO variants, D08, TDO_6, and TDO_8 were transformed into cotton (along with the Os.TDO control) using similar expression elements in single-cassette vectors or as part of multi-cassette vectors. R2 transgenic cotton plants were then screened for tolerance to mesotrione. Sixteen plants from two events each per construct were sprayed with two rates (2X and 8X) of mesotrione at V3 stage under normal (80° F.) and hot (100° F.) growing conditions. In addition, the effect of heat treatment on TDO accumulation in cotton plants were measured by ELISA. Cotton plants were planted and grown under normal greenhouse conditions (80° F. day/70° F. night) until V3 growth stage. Half of the plants were then moved to a higher temperature growth chamber (100° F. day/82° F. night) for the heat treatment, whereas the remaining half of the plants stayed in the same greenhouse (80° F. day/70° F. night). At day 3 after the plants were placed under different temperature conditions, leaf samples were collected for TDO protein measurement. The plants in 100° F. growth chamber and in 80° F. greenhouse were both sprayed with 2X mesotrione (210 g a.i./ha). Leaf samples were collected again 7 days after mesotrione treatment (DAT: Days After Treatment) for protein assay. Table 5 compares protein levels of the TDO variants in transgenic cotton plants grown under the two tested conditions. The protein levels for the TDO variants were measured at three time points for plants: 1) just before entering the high temperature treatment, 2) three days following placement into control (normal growth temperature) or high temperature (100° F.), and 3) 7 days after a 2X mesotrione spray.

B1: ANDge.TDO: TDO homolog from Andropogon gerardii, SEQ ID NO:12 (protein, listed as Andropogon gerardii)
chain: MASSSWRVPTPVQELAAGVVEPPSQFVLQEQDRPESLLLAADMPEPIPVIDLSRLSAADEASKLQSALQTWGLFLVTNHGIEASLMDEVMAASRDFFHQPLQEKQKYSNLIGGKRFQMEGYGNDMVTSQDQILDWQDRLQLRVEPEDERNLAYWPKHPDSFRDLLHEYASKTKKVRDNLLRAMGKILELGDDYFISQIGEKASAVARFNYYPPCPRPELVFGIKPHSDGGAVTILLVDNDVGGLQVQKDGIWYTVPSKPHTLVVNLADSMEIMNNGIFKSPVHRVVTNAEKERLSLAMFYGVEGQKMLEPAAGLLGEDRPARYRKIKAADYIVGLRQGIAKGQRFIETLKI
% Injury [1]: 55%

B2: TDO_6: Os.TDO variant, SEQ ID NO:38, G242S-P256E relative to D08 (protein)
chain: MADESWRAPALVQELAAKGVEEPPSRYLLREQDRPDVKLVAAELPEPIPVVDLGRLDGAEEATKLRVALQNWGFFLLTNHGIEASLMDDVMNLSREFFNQPIERKQKFSNLIDGKHFQIEGYGTDRVVTQDQVLDWSDRLHLRVEPKEEQDLAFWPDHPESFRDVLHKYASGCKRIRDDIIQAMAKLLELDEDYFLDRFNEAPTFARFNYYPPCPRPDLVFGIRPHSDGGLLTILLVDKDVSGLQVQRDGKWSNVEATPHTLLINLGDTMEVMSNGIFKSPVHRVVTNAEKERISLAMLYSVNDEKDIEPAAGLLDENRPARYRKVSVEEFRAGIFGKFSRGERYIDSLRI
modifications: TDO variant sequence
R0 % Injury [2]: 31% | Crop Injury (%), 210 g/ha (2X) Mesotrione (transgenic cotton plants; Under 80° F.): 0% | Crop Injury (%), 840 g/ha (8X) Mesotrione (transgenic cotton plants; Under 80° F.): 0% | Crop Injury (%), 210 g/ha (2X) Mesotrione (transgenic cotton plants; Under 100° F.): 0% | Crop Injury (%), 840 g/ha (8X) Mesotrione (transgenic cotton plants; Under 100° F.): 0% | injury rates relative to Os.TDO controls (transgenic cotton plants; cotton at the higher temperature): trending even lower than the Os.TDO controls

B3: TDO_8: Os.TDO variant, SEQ ID NO:42, Q32K-I48L-V133I-G242S-P256E relative to D08 (protein)
chain: MADESWRAPALVQELAAKGVEEPPSRYLLREKDRPDVKLVAAELPEPLPVVDLGRLDGAEEATKLRVALQNWGFFLLTNHGIEASLMDDVMNLSREFFNQPIERKQKFSNLIDGKHFQIEGYGTDRVVTQDQILDWSDRLHLRVEPKEEQDLAFWPDHPESFRDVLHKYASGCKRIRDDIIQAMAKLLELDEDYFLDRFNEAPTFARFNYYPPCPRPDLVFGIRPHSDGGLLTILLVDKDVSGLQVQRDGKWSNVEATPHTLLINLGDTMEVMSNGIFKSPVHRVVTNAEKERISLAMLYSVNDEKDIEPAAGLLDENRPARYRKVSVEEFRAGIFGKFSRGERYIDSLRI
modifications: TDO variant sequence
R0 % Injury [2]: 31% | Crop Injury (%), 210 g/ha (2X) Mesotrione (transgenic cotton plants; Under 80° F.): 0.25% | Crop Injury (%), 840 g/ha (8X) Mesotrione (transgenic cotton plants; Under 80° F.): 0% | Crop Injury (%), 210 g/ha (2X) Mesotrione (transgenic cotton plants; Under 100° F.): 0.27% | Crop Injury (%), 840 g/ha (8X) Mesotrione (transgenic cotton plants; Under 100° F.): 0%

B4: TDO_3: Os.TDO variant, SEQ ID NO:32, P35S-G242S relative to D08 (protein)
chain: MADESWRAPALVQELAAKGVEEPPSRYLLREQDRSDVKLVAAELPEPIPVVDLGRLDGAEEATKLRVALQNWGFFLLTNHGIEASLMDDVMNLSREFFNQPIERKQKFSNLIDGKHFQIEGYGTDRVVTQDQVLDWSDRLHLRVEPKEEQDLAFWPDHPESFRDVLHKYASGCKRIRDDIIQAMAKLLELDEDYFLDRFNEAPTFARFNYYPPCPRPDLVFGIRPHSDGGLLTILLVDKDVSGLQVQRDGKWSNVPATPHTLLINLGDTMEVMSNGIFKSPVHRVVTNAEKERISLAMLYSVNDEKDIEPAAGLLDENRPARYRKVSVEEFRAGIFGKFSRGERYIDSLRI
modifications: TDO variant sequence
R0 % Injury [2]: 35%

B5: TDO_4: Os.TDO variant, SEQ ID NO:34, H116N-G242S relative to D08 (protein)
chain: MADESWRAPALVQELAAKGVEEPPSRYLLREQDRPDVKLVAAELPEPIPVVDLGRLDGAEEATKLRVALQNWGFFLLTNHGIEASLMDDVMNLSREFFNQPIERKQKFSNLIDGKNFQIEGYGTDRVVTQDQVLDWSDRLHLRVEPKEEQDLAFWPDHPESFRDVLHKYASGCKRIRDDIIQAMAKLLELDEDYFLDRFNEAPTFARFNYYPPCPRPDLVFGIRPHSDGGLLTILLVDKDVSGLQVQRDGKWSNVPATPHTLLINLGDTMEVMSNGIFKSPVHRVVTNAEKERISLAMLYSVNDEKDIEPAAGLLDENRPARYRKVSVEEFRAGIFGKFSRGERYIDSLRI
modifications: TDO variant sequence
R0 % Injury [2]: 32%

B6: TDO_1: Os.TDO variant, SEQ ID NO:28, P35S-H116N relative to D08 (protein)
chain: MADESWRAPALVQELAAKGVEEPPSRYLLREQDRSDVKLVAAELPEPIPVVDLGRLDGAEEATKLRVALQNWGFFLLTNHGIEASLMDDVMNLSREFFNQPIERKQKFSNLIDGKNFQIEGYGTDRVVTQDQVLDWSDRLHLRVEPKEEQDLAFWPDHPESFRDVLHKYASGCKRIRDDIIQAMAKLLELDEDYFLDRFNEAPTFARFNYYPPCPRPDLVFGIRPHSDGGLLTILLVDKDVGGLQVQRDGKWSNVPATPHTLLINLGDTMEVMSNGIFKSPVHRVVTNAEKERISLAMLYSVNDEKDIEPAAGLLDENRPARYRKVSVEEFRAGIFGKFSRGERYIDSLRI
modifications: TDO variant sequence
R0 % Injury [2]: 30%

B7: TDO_5: Os.TDO variant, SEQ ID NO:36, E120Q-G242S relative to D08 (protein)
chain: MADESWRAPALVQELAAKGVEEPPSRYLLREQDRPDVKLVAAELPEPIPVVDLGRLDGAEEATKLRVALQNWGFFLLTNHGIEASLMDDVMNLSREFFNQPIERKQKFSNLIDGKHFQIQGYGTDRVVTQDQVLDWSDRLHLRVEPKEEQDLAFWPDHPESFRDVLHKYASGCKRIRDDIIQAMAKLLELDEDYFLDRFNEAPTFARFNYYPPCPRPDLVFGIRPHSDGGLLTILLVDKDVSGLQVQRDGKWSNVPATPHTLLINLGDTMEVMSNGIFKSPVHRVVTNAEKERISLAMLYSVNDEKDIEPAAGLLDENRPARYRKVSVEEFRAGIFGKFSRGERYIDSLRI
modifications: TDO variant sequence
R0 % Injury [2]: 30%

B8: TDO_7: Os.TDO variant, SEQ ID NO:40, G242S-S274C relative to D08 (protein)
chain: MADESWRAPALVQELAAKGVEEPPSRYLLREQDRPDVKLVAAELPEPIPVVDLGRLDGAEEATKLRVALQNWGFFLLTNHGIEASLMDDVMNLSREFFNQPIERKQKFSNLIDGKHFQIEGYGTDRVVTQDQVLDWSDRLHLRVEPKEEQDLAFWPDHPESFRDVLHKYASGCKRIRDDIIQAMAKLLELDEDYFLDRFNEAPTFARFNYYPPCPRPDLVFGIRPHSDGGLLTILLVDKDVSGLQVQRDGKWSNVPATPHTLLINLGDTMEVMCNGIFKSPVHRVVTNAEKERISLAMLYSVNDEKDIEPAAGLLDENRPARYRKVSVEEFRAGIFGKFSRGERYIDSLRI
modifications: TDO variant sequence
R0 % Injury [2]: 32%

B9: Ta.TDO: TDO homolog from Triticum aestivum, SEQ ID NO:10 (A4S from codon optimization) (protein, listed as Triticum aestivum)
chain: MASSDESPMVRPTVQELASAGVEEPPRQYVLPEQDRHGDLLAADEFPEPIPLIDLSRLTDADEAERLRAALQTWGFFLATNHGIEGSLMDAMMSVSREFFRQPAEEKQKCSNLVDGNGKDYQVEGYGSDKVVSEDQVLNWSDRLHLRVEPEDERNFAKWPSHPESFRDVLKEYASRTKEIRDLVLRSIAKLLEIDEDYFVNQISNKASGFARFNYYPPCPRPDLVLGLRAHSDGGLLTILFNDDTVGGLQVQRDGRWYNVSAKPHTLLINLADCLEIMNNGIFTSPIHRVVTNIKKDRLSLAVFYAVDAETMLEPAPGLLDDKRPPRYRKMLAKDFVAGLFEHFRQGKRFINTLKI
% Injury [1]: 50%
